Data published in patent US20090022714A1, “Combination methods of inhibiting tumor growth with a vascular endothelial growth factor receptor antagonist” (ImClone Systems, Inc., priority 2001, published 2009).

Biological target: chimeric receptor mouse flk-1 (VEGFR-2)/human fms expressed on transfected 3T3 cells (C441) (mouse; human) (UniProt P35918)
Assay: cell-based or functional assay

Sequence of chimeric receptor mouse flk-1 (VEGFR-2)/human fms expressed on transfected 3T3 cells (C441) (mouse; human) (P35918 other isoform, or with tags, fused parts or gaps mutant limits assumed): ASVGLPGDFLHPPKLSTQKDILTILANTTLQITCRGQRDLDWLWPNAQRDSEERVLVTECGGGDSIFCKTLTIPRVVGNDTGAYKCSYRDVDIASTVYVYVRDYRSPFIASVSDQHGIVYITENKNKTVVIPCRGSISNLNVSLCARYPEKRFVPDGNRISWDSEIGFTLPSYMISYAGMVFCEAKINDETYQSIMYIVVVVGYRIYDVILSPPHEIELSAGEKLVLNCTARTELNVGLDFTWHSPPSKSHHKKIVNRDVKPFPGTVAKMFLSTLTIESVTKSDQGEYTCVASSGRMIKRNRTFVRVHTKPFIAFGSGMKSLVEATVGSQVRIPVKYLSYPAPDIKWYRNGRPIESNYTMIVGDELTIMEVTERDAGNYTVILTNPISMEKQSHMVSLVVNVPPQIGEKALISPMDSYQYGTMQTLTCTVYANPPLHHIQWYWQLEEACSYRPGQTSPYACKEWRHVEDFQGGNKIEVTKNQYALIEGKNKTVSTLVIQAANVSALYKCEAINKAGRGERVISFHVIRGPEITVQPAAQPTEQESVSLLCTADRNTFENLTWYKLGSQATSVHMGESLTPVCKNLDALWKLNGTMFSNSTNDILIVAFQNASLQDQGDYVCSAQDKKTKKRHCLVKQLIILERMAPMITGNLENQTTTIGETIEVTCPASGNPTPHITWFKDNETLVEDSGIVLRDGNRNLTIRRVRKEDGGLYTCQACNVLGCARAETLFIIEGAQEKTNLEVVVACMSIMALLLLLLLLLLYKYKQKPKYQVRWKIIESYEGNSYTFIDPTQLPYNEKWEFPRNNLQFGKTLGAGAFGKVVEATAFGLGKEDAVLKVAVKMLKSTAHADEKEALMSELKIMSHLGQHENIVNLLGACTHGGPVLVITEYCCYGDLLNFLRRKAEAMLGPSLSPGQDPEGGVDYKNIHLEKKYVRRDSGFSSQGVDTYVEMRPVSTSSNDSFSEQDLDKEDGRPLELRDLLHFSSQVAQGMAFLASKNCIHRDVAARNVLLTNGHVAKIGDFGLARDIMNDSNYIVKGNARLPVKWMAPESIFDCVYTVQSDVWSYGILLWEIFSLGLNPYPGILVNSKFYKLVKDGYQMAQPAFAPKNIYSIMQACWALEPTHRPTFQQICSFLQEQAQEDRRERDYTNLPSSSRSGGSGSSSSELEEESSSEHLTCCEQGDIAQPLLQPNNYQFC

B1: rat anti-mouse flk-1 (VEGFR-2) monoclonal antibody DC-101 (antibody, from another filing, rat IgG1, V domains shown)
VH: EVQLVETGGGLVQPGNSLKLSCATSGFIFSTTWMNWIRQTPGKRLEWLAQIEDKSNNYFISYSESVKGRFTISRDDSKSSVYLQMNNLKEEDTAIYYCSWKYRSNYYFDYWGQGVMVTVSS
VL: DIVLTQSPALAVSLEQRATISCKTSQNVDYYGISYLHWYQQKPGQQPKLLIYEGSNLASGIPARFSGSGSGTDFTLTIDPVEADDIVTYYCQQSKDYPYTFGAGTKLELKR
- inhibition of receptor activation by ligand: < 1 µg/mL
- inhibition of receptor activation by ligand, prebound antibody: < 1 µg/mL
- phosphorylation level relative to the fully stimulated receptor control, antibody added with ligand (densitometry): 40%
- phosphorylation level relative to the fully stimulated receptor control, antibody prebound (densitometry): 6%
- phosphorylation of flk-1 (VEGFR-2), competitive antibody titration: > 0.5 µg/mL
